Source: patent publication US20030124132A1 (University of Texas, published 2003)

How the values were obtained:
[1] = test system: cancer patients having progressive disease; conditions: progressive disease before treatment; cited from earlier work
[2] = test system: TNFα; conditions: cited from earlier work
[3] = test system: human umbilical vein endothelial cells (HUVEC); conditions: cited from earlier work
[4] = test system: bEnd.3 endothelial cells; test: Viability of endothelial cells exposed to H2O2 (Trypan Blue exclusion); type: cell-based, mouse
Method: (§1) Mouse bEnd.3 endothelial cells were seeded at an initial density of 50,000 cells/well. Twenty-fours later cells were incubated with increasing concentrations of H2O2 (from 10 μM to 500 μM) for 1 hour at 37° C. or left untreated. At the end of the incubation, cells were washed 3 times with PBS containing 0.2% gelatin and fixed with 0.25% glutaraldehyde. Identical wells were either stained with anti-PS IgM or trypsinized and evaluated for viability by the Trypan Blue exclusion test. For the anti-PS staining, after blocking with 2% gelatin for 10 min., cells were incubated with 2 μg/ml of anti-PS antibody, followed by detection with anti-mouse IgM-HRP conjugate.

[5] = test system: bEnd.3 endothelial cells; test: PS surface expression on endothelial cells exposed to H2O2 (anti-PS IgM staining); type: cell-based, mouse
Method: as §1

[6] = molecular target: I-A^d MHC Class II antigen (mouse) (UniProt P04228); test: FACS
[7] = molecular target: I-A^d MHC Class II antigen (mouse) (UniProt P04228); test: cell-based or functional assay
[8] = test system: tissue factor on HUVEC cells; test: FACS analysis of tissue factor expression on endothelial cells; type: cell-based, human; conditions: TNFα 500 U/ml, LPS 10 μg/ml, VEGF 1 nM, alone or in combination, 6 h
Method: To analyze tissue factor expression on the surface of endothelial cells, HUVEC cells were incubated with TNFα (500 U/ml), LPS (10 μg/ml) or vascular endothelial growth factor (VEGF, 1 nM) alone or in combination for 6 h at 37°. Cells were then detached and stained for surface expression of human tissue factor with a sheep-anti-human tissue factor antibody (Haemochrom, Essen, Germany) and an appropriate FITC-conjugated secondary antibody. Fluorescent cells were detected on a flow cytometer (Becton Dickinson, San Jose, Calif.).

[9] = test system: IL-1α-stimulated bEnd.3 cells; test: Chromogenic assay of Factor Xa formation by cell-bound coaguligand, with Annexin V; type: cell-based, mouse; conditions: Annexin V 10 μg per ml
Method: The ability of Annexin V to affect Factor Xa formation induced by coaguligand was determined by a chromogenic assay. […] Annexin V was added at concentrations ranging from 0.1 to 10 μg/ml and cells were incubated for 30 min. before addition of diluted Proplex T. The amount of Factor Xa generated in the presence or absence of Annexin V was determined. Each treatment was performed in duplicate and repeated at least twice.

[10] = test system: L540 Hodgkin tumor blood vessels; test: Annexin V inhibition of coaguligand-induced thrombosis in vivo; parameters: species or system SCID mice; conditions: 100 μg Annexin V alone or 2 hours before 40 μg coaguligand
Method: The ability of Annexin V to inhibit coaguligand-induced thrombosis in vivo was examined in L540 Hodgkin-bearing SCID mice.
Four hours after the last injection mice were anesthetized and perfused with heparinized saline. Tumors were removed, fixed with 4% formalin, paraffin-embedded and stained with hematoxylene-eosin. The number of thrombosed and non-thrombosed blood vessels were counted and the percentage of thrombosis was calculated.
Groups of tumor-bearing mice were treated with one of the control or test reagents. […] Identical results were obtained in both mice per group.

[11] = molecular target: T1, tissue factor on the surface of stimulated 2F2B mouse endothelial cells (mouse, UniProt P20352 29-294); test: FACS on 2F2B mouse endothelial cells stimulated with LPS or TNF alpha, detection with sheep anti-human TF antibody; also a cell bound coagulation assay
T1 construct: whole, on cells; also called cell-surface tissue factor; endogenous TF
T1 sequence (looked up): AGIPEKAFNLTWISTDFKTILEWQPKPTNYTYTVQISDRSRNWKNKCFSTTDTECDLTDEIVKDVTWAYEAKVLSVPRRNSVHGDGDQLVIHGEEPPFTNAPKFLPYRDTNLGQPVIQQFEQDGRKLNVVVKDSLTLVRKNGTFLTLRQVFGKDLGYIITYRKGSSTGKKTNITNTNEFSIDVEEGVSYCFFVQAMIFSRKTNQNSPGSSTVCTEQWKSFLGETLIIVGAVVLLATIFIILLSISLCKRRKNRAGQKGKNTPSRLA

[12] = test system: A20 lymphoma cells (I-A^d positive), mouse or human plasma; test: In vitro coagulation assay on A20 cells with capture bispecific antibody B21-2/10H10; type: cell-based; conditions: for concentration at which plasma coagulated in 50 seconds: bound via B21-2/10H10 to A20 cells, separate studies per block; for coagulation inducing activity lower than reference: versus monomer / unconjugated form or tTF219
[13] = test system: Factor X to Xa conversion on A20 cells; test: Factor Xa production assay on A20 cells; type: cell-based, mouse; conditions: Factors II, VII, IX and X present

NC(=O)c1nnn(Cc2cc(Cl)c(C(=O)c3ccc(Cl)cc3)c(Cl)c2)c1N [CAI, carboxyamidotriazole]
cancer patients with disease stabilization [1]: 49%

Cc1ccc2c(=O)c3cccc(CC(=O)O)c3oc2c1C [DMXAA]
less effective than endotoxin in inducing TNFα [2]: 20 fold

OO [H2O2]
viability ([3]; 15 μM H2O2): 90 to 95%
viable cells ([3]; 1500 μM H2O2): 0%-50%
cell viability ([4]; H2O2 higher than 100 μM): 50-60%
cell viability ([4]; low levels of H2O2, identical to untreated cells): 95%
cells with PS at the cell surface ([5]; H2O2 as low as 20 μM (lower than 100 μM)): about 50%
cells with PS translocation ([5]; H2O2 higher than 100 μM, 1 hour): ~90%

B21-2 anti-I-A^d antibody
fold higher affinity than M5/114.15.2 [6]: 5 to 10 fold

B21-2/10H10 bispecific antibody
time for fibrin strands to form after adding mouse plasma to A20 cells [7]: 36 s

VEGF
tissue factor expression on the surface of HUVEC [8]: upregulated tissue factor expression

B1: Annexin V: binds to PS with high affinity (protein, UniProt P08758 2-320, looked up)
Annexin A5: AQVLRGTVTDFPGFDERADAETLRKAMKGLGTDEESILTLLTSRSNAQRQEISAAFKTLFGRDLLDDLKSELTGKFEKLIVALMKPSRLYDAYELKHALKGAGTNEKVLTEIIASRTPEELRAIKQVYEEEYGSSLEDDVVGDTSGYYQRMLVVLLQANRDPDAGIDEAQVEQDAQALFQAGELKWGTDEEKFITIFGTRSVSHLRKVFDKYMTISGFQIEETIDRETSGNLEQLLLAVVKSIRSIPAYLAETLYYAMKGAGTDDHTLIRVMVSRSEIDLFNIRKEFRKNFATSLYSMIKGDTSGDYKKALLLLCGEDD
inhibition of factor Xa production [9]: 58%
effect on tumor thrombosis / morphology [10]: did not alter tumor morphology

B2: recombinant, depyrogenated truncated Tissue Factor (amino acids 1-219) of Example X (other, human, UniProt P13726 33-251, looked up)
chain: SGTTNTVAAYNLTWKSTNFKTILEWEPKPVNQVYTVQISTKSGDWKSKCFYTTDTECDLTDEIVKDVKQTYLARVFSYPAGNVESTGSAGEPLYENSPEFTPYLETNLGQPTIQSFEQVGTKVNVTVEDERTLVRRNNTFLSLRDVFGKDLIYTLYYWKSSSSGKKTAKTNTNEFLIDVDKGENYCFSVQAVIPSRTVNRKSTDSPVECMGQEKGEFRE
notes: also called tTF; endotoxin-free tTF
binding result [11]: no binding

B3: H6-tTF219-cys-C′: tTF with (His)6 and a Cys after amino acid 219 (protein)
chain: HHHHHHAMALVPRGSGTTNTVAAYNLTWKSTNFKTILEWEPKPVNQVYTVQISTKSGDWKSKCFYTTDTECDLTDEIVKVKQTYLARVFSYPAGNVESTGSAGEPLYENSPEFTPYLETNLGQPTIQSFEQVGTKVNVTVEDRTLVRRNNTFLSLRDVFGKDLIYTLYYWKSSSSGKKTAKTNTNEFLIDVDKGENYCFSVQAVIPSRTVNRKSTDSPVECMGQEKGEFREC
concentration at which plasma coagulated in 50 seconds [12]: 3 nM

B4: IgG-H6-N′-cys-tTF219: one molecule of IgG linked via SMPT to one or two molecules of tTF (conjugate)
chain: HHHHHHAMALVPRGSCGTTNTVAAYNLTWKSTNFKTILEWEPKPVNQVYTVQISTKSGDWKSKCFYTTDTECDLTDEIVKDVKQTYLARVFSYPAGNVESTGSAGEPLYENSPEFTPYLETNLGQPTIQSFEQVGTKVNVTVEDERTLVRRNNTFLSLRDVFGKDLIYTLYYWKSSSSGKKTAKTNTNEFLIDVDKGENYCFSVQAVIPSRTVNRKSTDSPVECMGQEKGEFRE
modifications: left off: large carriers
concentration at which plasma coagulated in 50 seconds [12]: 5 nM
coagulation inducing activity lower than reference [12]: 5 fold
less active than H6-N′-cys-tTF219 at inducing Xa formation [13]: 2 fold

B5: Fab′-H6-N′-cys-tTF219: Fab′ fragment disulfide-linked to H6-N′-cys-tTF219 (conjugate)
chain: B4 chain
modifications: left off: another chain or arm of the molecule; large carriers
activity at inducing Xa formation relative to H6-N′-cys-tTF219 [13]: as active as H6-N′-cys-tTF219 itself

B6: tTF220-cys-C′: H6-tTF220-cys-C′ without the (His)6 tag (protein)
chain: GSGTTNTVAAYNLTWKSTNFKTILEWEPKPVNQVYTVQISTKSGDWKSKCFYTTDTECDLTDEIVKDVKQTYLARVFSYPAGNVESTGSAGEPLYENSPEFTPYLETNLGQPTIQSFEQVGTKVNVTVEDERTLVRRNNTFLSLRDVFGKDLIYTLYYWKSSSSGKKTAKTNTNEFLIDVDKGENYCFSVQAVIPSRTVNRKSTDSPVECMGQEKGEFREIC
concentration at which plasma coagulated in 50 seconds [12]: 0.5 nM

B7: tTF221-cys-C′: H6-tTF221-cys-C′ without the (His)6 tag (protein)
chain: GSGTTNTVAAYNLTWKSTNFKTILEWEPKPVNQVYTVQISTKSGDWKSKCFYTTDTECDLTDEIVKDVKQTYLARVFSYPAGNVESTGSAGEPLYENSPEFTPYLETNLGQPTIQSFEQVGTKVNVTVEDERTLVRRNNTFLSLRDVFGKDLIYTLYYWKSSSSGKKTAKTNTNEFLIDVDKGENYCFSVQAVIPSRTVNRKSTDSPVECMGQEKGEFREIFC
concentration at which plasma coagulated in 50 seconds [12]: 0.5 nM

B8: H6-tTF220-cys-C′: tTF219 with Ile-Cys after amino acid 219, (His)6 (protein)
chain: HHHHHHAMALVPRGSGTTNTVAAYNLTWKSTNFKTILEWEPKPVNQVYTVQISTKSGDWKSKCFYTTDTECDLTDEIVKDVKQTYLARVFSYPAGNVESTGSAGEPLYENSPEFTPYLETNLGQPTIQSFEQVGTKVNVTVEDERTLVRRNNTFLSLRDVFGKDLIYTLYYWKSSSSGKKTAKTNTNEFLIDVDKGENYCFSVQAVIPSRTVNRKSTDSPVECMGQEKGEFRE
concentration at which plasma coagulated in 50 seconds [12]: 0.5 nM

B9: H6-tTF221-cys-C′ dimer: chemically conjugated disulfide dimer of H6-tTF221-cys-C′ (protein)
chain: B8 chain
concentration at which plasma coagulated in 50 seconds [12]: 4 nM
coagulation inducing activity lower than reference [12]: 4 fold
